Results from PMC5526998, “Structural analysis of the regulatory mechanism of MarR protein Rv2887 in M. tuberculosis” (Scientific Reports, 2017).

Key:
[1] = molecular target: T1, Rv2887 (MarR family regulator) (Mycobacterium tuberculosis H37Rv) (UniProt P9WME9); experiment: DNase I footprinting
T1 sequence: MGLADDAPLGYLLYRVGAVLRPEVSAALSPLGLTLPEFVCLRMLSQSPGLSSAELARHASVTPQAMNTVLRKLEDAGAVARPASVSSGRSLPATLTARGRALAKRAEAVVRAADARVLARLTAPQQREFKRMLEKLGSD

[2] = molecular target: T1, Rv2887 (MarR family regulator) (Mycobacterium tuberculosis H37Rv); experiment: EMSA
[3] = molecular target: T2, Rv2887 (crystal with DNA) (Mycobacterium tuberculosis H37Rv, UniProt P9WME9 1-139); experiment: X-ray crystal structure (2.5 A); settings: protein: recombinant; tags: N-terminal 6xHis (pET-28a); chain copies: 4; blunt
T2 sequence: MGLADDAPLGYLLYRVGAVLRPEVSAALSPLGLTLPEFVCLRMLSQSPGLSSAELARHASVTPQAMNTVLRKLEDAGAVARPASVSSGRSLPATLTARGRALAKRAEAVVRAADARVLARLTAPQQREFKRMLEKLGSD

Molecule: CGAACTCAAGATCCAGCGATTCAGTCATGTGTTCATATATATCAACGGCCCTGATATATGTCAACACAGTTGACATTCGCGCACCCTTGGTTGCCGGCCGTCAGCTGAACGGCGGTCGTCGATCGACGAGCCGGGACAATTGACCGCCACCGCGCCACACCCGCGCCACCCAGTCGCGGTCGTCGTCGGTGACCAGATTGGACATCACCCGCACGGCGATGTTCATCAATGCGGTGGAGCGCATCGTGATGGGC (double strand) [Rv0560c upstream probe (6-FAM)]
- binding [1]: binds

Molecule: CGAACTCAAGATCCAGCGATTCAGTCATGTGTTCATATATATCAACGGCCCTGATATATGTCAACACAGTTGACATTCGCGCACCCTTGGTTGCCGGCCGTCAGCTGAACGGCGGTCGTCGATCGACGAGCCGGGACAATTGACCGCCACCGCGCCACACCCGCGCCACCCAGTCGCGGTCGTCGTCGGTGACCAGATTGGACATCACCCGCACGGCGATGTTCATCAATGCGGTGGAGCGCATCGTGATGGGC (double strand) [Rv0560c upstream probe (biotin)]
- binding [2]: binds

B1: 30 bp Rv0560c operator duplex (dsDNA)
DNA 1: CGATCGACGACCGCCGTTCAGCTGACGTCG
DNA 2: CGACGTCAGCTGAACGGCGGTCGTCGATCG
- binding result [3]: binds
